# B1: Syndecan-4 (Rattus norvegicus (Rat)), P34901 (parent)
# chain: MAPVCLFAPLLLLLLGGFPVAPGESIRETEVIDPQDLLEGRYFSGALPDDEDAGGLEQDSDFELSGSGDLDDTEEPRTFPEVISPLVPLDNHIPENAQPGIRVPSEPKELEENEVIPKRVPSDVGDDDVSNKVSMSSTSQGSNIFERTEVLAALIVGGVVGILFAVFLILLLVYRMKKKDEGSYDLGKKPIYKKAPTNEFYA
# partner: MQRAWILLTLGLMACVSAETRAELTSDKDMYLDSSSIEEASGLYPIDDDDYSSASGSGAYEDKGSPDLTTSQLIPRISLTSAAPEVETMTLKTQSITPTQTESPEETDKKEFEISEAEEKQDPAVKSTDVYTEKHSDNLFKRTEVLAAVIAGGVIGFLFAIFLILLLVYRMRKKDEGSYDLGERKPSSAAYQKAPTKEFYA
# B2: Syndecan-4 (Rattus norvegicus (Rat)), P34901 (parent)
# chain: B1 chain
# B3: Syndecan-4 (Rattus norvegicus (Rat)), P34901 (parent)
# chain: B1 chain
# partner: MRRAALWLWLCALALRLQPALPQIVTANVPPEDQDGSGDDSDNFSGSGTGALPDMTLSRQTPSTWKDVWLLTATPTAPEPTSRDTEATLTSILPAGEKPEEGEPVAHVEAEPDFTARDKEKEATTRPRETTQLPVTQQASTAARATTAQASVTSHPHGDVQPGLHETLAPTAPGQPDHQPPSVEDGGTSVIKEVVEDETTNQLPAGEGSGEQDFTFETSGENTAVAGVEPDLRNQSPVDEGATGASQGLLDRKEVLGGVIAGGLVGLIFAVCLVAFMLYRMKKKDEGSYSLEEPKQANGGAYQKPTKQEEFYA
# B4: Syndecan-2 (Rattus norvegicus (Rat)), P34900 (parent)
# chain: B1 partner
# partner: B3 partner
# B5: Syndecan-2 (Rattus norvegicus (Rat)), P34900 (parent)
# chain: B1 partner
# B6: Syndecan-2 (Rattus norvegicus (Rat)), P34900 (parent)
# chain: B1 partner
# partner: B1 chain
# B7: Syndecan-1 (Rattus norvegicus (Rat)), P26260 (parent)
# chain: B3 partner
# partner: B1 partner
# Variants of: B1
# Settings: with sdc2_rat Sdc2, P34900
row,Variant,effect of a mutation on the interaction
1,MAPVCLFAPLLLLLLGGFPVAPGESIRETEVIDPQDLLEGRYFSGALPDDEDAGGLEQDSDFELSGSGDLDDTEEPRTFPEVISPLVPLDNHIPENAQPGIRVPSEPKELEENEVIPKRVPSDVGDDDVSNKVSMSSTSQGSNIFERTEVLAALIVGGVVGILYAVFLILLLVYRMKKKDEGSYDLGKKPIYKKAPTNEFYA [F164Y],decreasing interaction strength

# Variants of: B2
# Settings: with sdc3_rat Sdc3, P33671
# Chain of sdc3_rat Sdc3, P33671 (P33671 whole entry): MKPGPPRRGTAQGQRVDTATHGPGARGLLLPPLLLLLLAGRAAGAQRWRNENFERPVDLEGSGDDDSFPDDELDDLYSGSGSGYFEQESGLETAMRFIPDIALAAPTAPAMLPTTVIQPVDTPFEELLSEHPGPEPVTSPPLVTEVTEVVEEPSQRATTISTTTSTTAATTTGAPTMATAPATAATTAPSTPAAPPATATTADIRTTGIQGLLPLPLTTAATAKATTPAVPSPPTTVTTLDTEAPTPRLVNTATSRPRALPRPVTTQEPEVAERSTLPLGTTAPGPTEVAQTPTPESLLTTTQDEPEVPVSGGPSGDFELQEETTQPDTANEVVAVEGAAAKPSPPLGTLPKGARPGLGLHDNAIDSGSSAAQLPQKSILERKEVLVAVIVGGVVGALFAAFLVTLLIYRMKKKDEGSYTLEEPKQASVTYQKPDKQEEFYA
row,Variant,effect of a mutation on the interaction
1,MAPVCLFAPLLLLLLGGFPVAPGESIRETEVIDPQDLLEGRYFSGALPDDEDAGGLEQDSDFELSGSGDLDDTEEPRTFPEVISPLVPLDNHIPENAQPGIRVPSEPKELEENEVIPKRVPSDVGDDDVSNKVSMSSTSQGSNIFERTEVLAALIVGGVVGILYAVFLILLLVYRMKKKDEGSYDLGKKPIYKKAPTNEFYA [F164Y],decreasing interaction strength

# Variants of: B3
# Settings: with sdc1_rat Sdc1, P26260
row,Variant,effect of a mutation on the interaction
1,MAPVCLFAPLLLLLLGGFPVAPGESIRETEVIDPQDLLEGRYFSGALPDDEDAGGLEQDSDFELSGSGDLDDTEEPRTFPEVISPLVPLDNHIPENAQPGIRVPSEPKELEENEVIPKRVPSDVGDDDVSNKVSMSSTSQGSNIFERTEVLAALIVGGVVGILYAVFLILLLVYRMKKKDEGSYDLGKKPIYKKAPTNEFYA [F164Y],decreasing interaction strength

# Variants of: B4
# Settings: with sdc1_rat Sdc1, P26260
row,Variant,effect of a mutation on the interaction
1,MQRAWILLTLGLMACVSAETRAELTSDKDMYLDSSSIEEASGLYPIDDDDYSSASGSGAYEDKGSPDLTTSQLIPRISLTSAAPEVETMTLKTQSITPTQTESPEETDKKEFEISEAEEKQDPAVKSTDVYTEKHSDNLFKRTEVLAAVIAGGVIGFLFAIYLILLLVYRMRKKDEGSYDLGERKPSSAAYQKAPTKEFYA [F162Y],with no effect

# Variants of: B5
# Settings: with sdc3_rat Sdc3, P33671
row,Variant,effect of a mutation on the interaction
1,MQRAWILLTLGLMACVSAETRAELTSDKDMYLDSSSIEEASGLYPIDDDDYSSASGSGAYEDKGSPDLTTSQLIPRISLTSAAPEVETMTLKTQSITPTQTESPEETDKKEFEISEAEEKQDPAVKSTDVYTEKHSDNLFKRTEVLAAVIAGGVIGFLYAIFLILLLVYRMRKKDEGSYDLGERKPSSAAYQKAPTKEFYA [F159Y],decreasing interaction strength

# Variants of: B6
# Settings: with sdc4_rat Sdc4, P34901
row,Variant,effect of a mutation on the interaction
1,MQRAWILLTLGLMACVSAETRAELTSDKDMYLDSSSIEEASGLYPIDDDDYSSASGSGAYEDKGSPDLTTSQLIPRISLTSAAPEVETMTLKTQSITPTQTESPEETDKKEFEISEAEEKQDPAVKSTDVYTEKHSDNLFKRTEVLAAVIAGGVIGFLYAIFLILLLVYRMRKKDEGSYDLGERKPSSAAYQKAPTKEFYA [F159Y],decreasing interaction strength
2,MQRAWILLTLGLMACVSAETRAELTSDKDMYLDSSSIEEASGLYPIDDDDYSSASGSGAYEDKGSPDLTTSQLIPRISLTSAAPEVETMTLKTQSITPTQTESPEETDKKEFEISEAEEKQDPAVKSTDVYTEKHSDNLFKRTEVLAAVIAGGVIGFLFAIYLILLLVYRMRKKDEGSYDLGERKPSSAAYQKAPTKEFYA [F162Y],with no effect
3,MQRAWILLTLGLMACVSAETRAELTSDKDMYLDSSSIEEASGLYPIDDDDYSSASGSGAYEDKGSPDLTTSQLIPRISLTSAAPEVETMTLKTQSITPTQTESPEETDKKEFEISEAEEKQDPAVKSTDVYTEKHSDNLFKRTEVLAAVIAGGVIGYLFAIFLILLLVYRMRKKDEGSYDLGERKPSSAAYQKAPTKEFYA [F157Y],disrupting interaction strength

# Variants of: B6
# Settings: with sdc4_rat Sdc4, P34901
# Remark: another data set of the same source
row,Variant,effect of a mutation on the interaction
1,MQRAWILLTLGLMACVSAETRAELTSDKDMYLDSSSIEEASGLYPIDDDDYSSASGSGAYEDKGSPDLTTSQLIPRISLTSAAPEVETMTLKTQSITPTQTESPEETDKKEFEISEAEEKQDPAVKSTDVYTEKHSDNLFKRTEVLAAVIAGGVIGFLYAIFLILLLVYRMRKKDEGSYDLGERKPSSAAYQKAPTKEFYA [F159Y],decreasing interaction

# Variants of: B6
# Settings: with sdc4_rat Sdc4, P34901
# Remark: another data set of the same source
row,Variant,effect of a mutation on the interaction
1,MQRAWILLTLGLMACVSAETRAELTSDKDMYLDSSSIEEASGLYPIDDDDYSSASGSGAYEDKGSPDLTTSQLIPRISLTSAAPEVETMTLKTQSITPTQTESPEETDKKEFEISEAEEKQDPAVKSTDVYTEKHSDNLFKRTEVLAAVIAGGVIGFLYAIFLILLLVYRMRKKDEGSYDLGERKPSSAAYQKAPTKEFYA [F159Y],disrupting interaction strength

# Variants of: B7
# Settings: with sdc2_rat Sdc2, P34900
row,Variant,effect of a mutation on the interaction
1,MRRAALWLWLCALALRLQPALPQIVTANVPPEDQDGSGDDSDNFSGSGTGALPDMTLSRQTPSTWKDVWLLTATPTAPEPTSRDTEATLTSILPAGEKPEEGEPVAHVEAEPDFTARDKEKEATTRPRETTQLPVTQQASTAARATTAQASVTSHPHGDVQPGLHETLAPTAPGQPDHQPPSVEDGGTSVIKEVVEDETTNQLPAGEGSGEQDFTFETSGENTAVAGVEPDLRNQSPVDEGATGASQGLLDRKEVLGGVIAGGLVGLIYAVCLVAFMLYRMKKKDEGSYSLEEPKQANGGAYQKPTKQEEFYA [F269Y],disrupting interaction strength
2,MRRAALWLWLCALALRLQPALPQIVTANVPPEDQDGSGDDSDNFSGSGTGALPDMTLSRQTPSTWKDVWLLTATPTAPEPTSRDTEATLTSILPAGEKPEEGEPVAHVEAEPDFTARDKEKEATTRPRETTQLPVTQQASTAARATTAQASVTSHPHGDVQPGLHETLAPTAPGQPDHQPPSVEDGGTSVIKEVVEDETTNQLPAGEGSGEQDFTFETSGENTAVAGVEPDLRNQSPVDEGATGASQGLLDRKEVLGGVIAGGLVGLIYAVFLVAFMLYRMKKKDEGSYSLEEPKQANGGAYQKPTKQEEFYA [F269Y;C272F],disrupting interaction strength
3,MRRAALWLWLCALALRLQPALPQIVTANVPPEDQDGSGDDSDNFSGSGTGALPDMTLSRQTPSTWKDVWLLTATPTAPEPTSRDTEATLTSILPAGEKPEEGEPVAHVEAEPDFTARDKEKEATTRPRETTQLPVTQQASTAARATTAQASVTSHPHGDVQPGLHETLAPTAPGQPDHQPPSVEDGGTSVIKEVVEDETTNQLPAGEGSGEQDFTFETSGENTAVAGVEPDLRNQSPVDEGATGASQGLLDRKEVLGGVIAGGLVGLIFAVFLVAFMLYRMKKKDEGSYSLEEPKQANGGAYQKPTKQEEFYA [C272F],with no effect

# Reference: IntAct's records for PubMed 26601939
